Reference: patent publication US20240368234A1

Target: MBP-SpyTag
Experiment: SDS-PAGE coupling assay, biotin-HPDP-modified Catcher, without TCEP, one hour

loss of activity: 50%
B1: SpyCatcher Ala87→Cys modified with biotin-HPDP (designed binder)
chain: VTTLSGLSGEQGPSGDMTTEEDSATHIKFSKRDEDGRELAGATMELRDSSGKTISTWISDGHVKDFYLYPGKYTFVETAAPDGYEVCTPIEFTVNEDGQVTVDGEATEGDAHT
